{"source": "patent US12083165B2", "about": "“Thymosin alpha 1 for use in treatment of cystic fibrosis” (SciClone Pharmaceuticals International (SG) PTE. LTD., priority 2015, dated 2024)", "key": {"ΔF508 CFTR [1]": {"target": "T1, ΔF508 CFTR (Homo sapiens, UniProt P13569, DEL508-508)", "T1 sequence (P13569 with tags, fused parts or gaps DEL508-508)": "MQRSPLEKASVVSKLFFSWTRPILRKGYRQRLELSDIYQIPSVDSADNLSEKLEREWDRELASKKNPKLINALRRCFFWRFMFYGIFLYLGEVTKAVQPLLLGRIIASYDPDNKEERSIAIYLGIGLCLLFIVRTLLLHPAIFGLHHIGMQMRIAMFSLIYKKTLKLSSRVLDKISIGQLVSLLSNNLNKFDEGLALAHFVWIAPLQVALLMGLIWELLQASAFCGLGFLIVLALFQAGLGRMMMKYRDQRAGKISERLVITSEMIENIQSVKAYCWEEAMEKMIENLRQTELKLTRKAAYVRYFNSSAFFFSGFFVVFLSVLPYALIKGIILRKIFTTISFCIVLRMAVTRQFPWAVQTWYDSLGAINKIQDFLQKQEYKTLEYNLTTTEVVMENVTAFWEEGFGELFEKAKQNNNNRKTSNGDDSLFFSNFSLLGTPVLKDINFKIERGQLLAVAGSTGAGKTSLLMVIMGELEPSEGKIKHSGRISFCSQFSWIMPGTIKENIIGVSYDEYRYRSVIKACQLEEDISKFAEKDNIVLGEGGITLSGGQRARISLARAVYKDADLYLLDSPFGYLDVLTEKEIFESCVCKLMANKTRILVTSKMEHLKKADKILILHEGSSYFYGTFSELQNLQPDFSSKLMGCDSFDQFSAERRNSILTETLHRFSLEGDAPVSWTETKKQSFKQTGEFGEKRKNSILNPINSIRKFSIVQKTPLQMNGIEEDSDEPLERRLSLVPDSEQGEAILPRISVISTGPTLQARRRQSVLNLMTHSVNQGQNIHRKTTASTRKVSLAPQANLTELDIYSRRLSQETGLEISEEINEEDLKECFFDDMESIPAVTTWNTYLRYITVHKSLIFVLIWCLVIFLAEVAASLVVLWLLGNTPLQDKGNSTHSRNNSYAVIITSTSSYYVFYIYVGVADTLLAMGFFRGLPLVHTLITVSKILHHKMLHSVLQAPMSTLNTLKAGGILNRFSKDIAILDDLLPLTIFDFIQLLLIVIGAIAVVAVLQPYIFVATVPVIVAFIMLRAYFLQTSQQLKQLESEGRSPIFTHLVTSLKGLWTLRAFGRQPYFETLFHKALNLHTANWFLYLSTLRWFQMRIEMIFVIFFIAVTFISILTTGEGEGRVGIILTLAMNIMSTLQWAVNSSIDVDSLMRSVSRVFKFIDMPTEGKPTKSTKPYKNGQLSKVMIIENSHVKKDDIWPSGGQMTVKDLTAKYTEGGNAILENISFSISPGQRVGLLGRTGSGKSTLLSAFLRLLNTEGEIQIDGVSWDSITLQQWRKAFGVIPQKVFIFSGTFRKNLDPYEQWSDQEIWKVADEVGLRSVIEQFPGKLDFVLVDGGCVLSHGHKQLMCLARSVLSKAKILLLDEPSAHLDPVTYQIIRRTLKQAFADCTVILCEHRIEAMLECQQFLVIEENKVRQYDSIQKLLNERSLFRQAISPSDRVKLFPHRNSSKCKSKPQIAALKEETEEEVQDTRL", "experiment": "CFTR immunoblot (mature C / immature B band) in CFBE41o− cells stably expressing ΔF508 CFTR", "type": "cell-based", "description": "Cells. Cell Lines and Cell Culture—Human bronchial epithelial (HBE) cells, homozygous for the […] mutation and its isogenic wild-type were obtained from lung transplants (CF patients) or lung resections (non-CF patients) (kindly provided by L J Galietta within the Italian Cystic Fibrosis Foundation). Cells were maintained at 37° C. in a humidified incubator in an atmosphere containing 5% CO2, and the experiments were done 5 days after plating (21, 22). Stable lentiviral-based transduction of the parental CFBE41o− cells (ΔF508/ΔF508), originally immortalized and characterized by Dr. D. Gruenert and co-workers (32) with either WT-CFTR or ΔF508-CFTR, was performed by Tranzyme, Inc. (Birmingham, AL). The transduced CFBE41o− cells were maintained in minimum Eagle's medium supplemented with 50 units/ml penicillin, 50 μg/ml streptomycin, 2 mM L-glutamine, 10% fetal bovine serum, and 1 μg/ml blasticidine (WT-CFTR) or 2 μg/ml puromycin (ΔF508-CFTR) in a 5% CO2, 95% air incubator at 37° C. The parental CFBE41o− cells were maintained under the same culture conditions but without blasticidine or puromycin. To establish polarized monolayers, CFBE41o− cells were seeded on 24-mm-diameter Transwell permeable supports ([…] pore size; Corning Corp., Corning, NY) at 2×10^6 and grown in air-liquid interface culture at 37° C. for 6-9 days and then at 27° C. for 36 hours. Cells were incubated with Tα1 100 ng/ml (CRIBI Biotechnology, Padova, see below), 3 μM VX-809 (Lumacaftor, Aurogene Rome, Italy), 1 μM VX-770 (Ivacaftor, Aurogene) alone or in combination for 24 hours before the assessment of CFTR protein expression and function. DMSO vehicle alone (0.1%, v/v) for 24 h was used as a control.\nCFTR Immunoblot Analysis. Immunoblot techniques using the anti-CFTR antibody (clone CF3, Abcam) were used to measure CFTR maturation in FRT, HEK-293, or HBE cells expressing CFTR or F508del-CFTR (34). After incubation, cells were harvested in ice-cold D-PBS solution (without calcium and magnesium) and pelleted at 1,000×g at 4° C. Cell pellets were lysed in 1% Nonidet P-40, 0.5% sodium deoxycholate, 200 mM NaCl, 10 mM Tris, pH 7.8, and 1 mM EDTA plus protease inhibitor mixture (1:250; Roche) for 30 min on ice. Lysates were spun for 10 min at 10,000×g at 4° C. to pellet nuclei and insoluble material. […] LiteAblotPlus chemiluminescence substrate (Euroclone S.p.A.), using ChemiDoc™ XRS+ Imagig system (Bio-Rad Laboratories) and blot quantification was obtained by densitometry image analysis using Image Lab 3.1.1 software (Bio-Rad).\nThe SV40 transformed CF airway epithelial cell line (CFBE41o−), homozygous for the ΔF508-CFTR mutation, was used (32). […] CFTR bands were quantified by densitometry and expressed as the C/B ratio. […]"}, "ΔF508 CFTR [2]": {"target": "T1, ΔF508 CFTR", "experiment": "Chloride permeability by SPQ fluorescence assay upon forskolin stimulation, CFBE41o− cells", "type": "cell-based", "description": "Cells. Cell Lines and Cell Culture—Human bronchial epithelial (HBE) cells, homozygous for the […] mutation and its isogenic wild-type were obtained from lung transplants (CF patients) or lung resections (non-CF patients) (kindly provided by L J Galietta within the Italian Cystic Fibrosis Foundation). Cells were maintained at 37° C. in a humidified incubator in an atmosphere containing 5% CO2, and the experiments were done 5 days after plating (21, 22). Stable lentiviral-based transduction of the parental CFBE41o− cells (ΔF508/ΔF508), originally immortalized and characterized by Dr. D. Gruenert and co-workers (32) with either WT-CFTR or ΔF508-CFTR, was performed by Tranzyme, Inc. (Birmingham, AL). […]\nThe activity of Tα1, either alone or in combination with ivacaftor, has been comparatively assessed with that of lumacaftor on CFBE41o− cells expressing ΔF508 CFTR and on HBE cells from CF patients. To this purpose, cells were treated with Tα1 (100 ng/ml), VX-770 (1 μM) or VX-809 (3 μM) alone or in combination for 24 hours and assessed for CFTR protein expression and function. […] In terms of ion channel activity, Tα1, either alone or in combination with ivacaftor, increased the chloride permeability of ΔF508 CFTR cells between 60 to 70% relative to control (considering WT control as 100% reference value)(B, assessed by a fluorescence assay upon stimulation with fosforkolin, Fsk). […]"}, "TMEM16A": {"system": "TMEM16A", "experiment": "DNA microarray analysis of mice with pulmonary aspergillosis", "type": "in vivo", "conditions": "unpublished results"}}}
{"substance": "Ac-Ser-Asp-Ala-Ala-Val-Asp-Thr-Ser-Ser-Glu-Ile-Thr-Thr-Lys-Asp-Leu-Lys-Glu-Lys-Lys-Glu-Val-Val-Glu-Glu-Ala-Glu-Asn-O (Ac-SDAAVDTSSEITTKDLKEKKEVVEEAEN-OH; not fully specified; printed as Ac-Ser-Asp-Ala-Ala-Val-Asp-Thr-Ser-Ser-Glu-Ile-Thr-Thr-Lys-Asp-Leu-Lys-Glu-Lys-Lys-Glu-Val-Val-Glu-Glu-Ala-Glu-Asn-O; listed as Homo sapiens) [Tα1, naturally occurring polypeptide of 28 amino acid; supplied as purified sterile, lyophilized, acetylated polypeptide]", "values": [{"measurement": "cellular expression of ΔF508 mature CFTR (band C, C/B ratio)", "setting": "ΔF508 CFTR [1]; 100 ng/ml Tα1, from 30 mins until 24 hours, CFBE41o− cells expressing ΔF508 CFTR", "result": "persistently increased"}, {"measurement": "expression of the mature form (C) relative to the immature form (B) of CFTR", "setting": "ΔF508 CFTR [1]; ΔF508-transfected cells, 24 hours, Tα1 100 ng/ml, VX-770 1 μM, VX-809 3 μM alone or in combination", "result": "increased"}, {"measurement": "chloride permeability of ΔF508 CFTR cells relative to control (WT control as 100%)", "setting": "ΔF508 CFTR [2]; 100 ng/ml Tα1 for 24 hours, CFBE41o− cells, forskolin stimulation", "result": "approximately 70%"}, {"measurement": "ion channel activity compared to lumacaftor", "setting": "ΔF508 CFTR [2]; CFBE41o− cells expressing ΔF508 CFTR, 24 hours", "result": "lower"}, {"measurement": "expression of TMEM16A in mice with pulmonary aspergillosis", "setting": "TMEM16A", "result": "greatly increased"}]}
